Target: T1, mouse asialoglycoprotein receptor 1 (ASGR1), FLAG tagged, expressed on CHO-S cells (mouse, UniProt P34927 1-284)
T1 sequence (looked up): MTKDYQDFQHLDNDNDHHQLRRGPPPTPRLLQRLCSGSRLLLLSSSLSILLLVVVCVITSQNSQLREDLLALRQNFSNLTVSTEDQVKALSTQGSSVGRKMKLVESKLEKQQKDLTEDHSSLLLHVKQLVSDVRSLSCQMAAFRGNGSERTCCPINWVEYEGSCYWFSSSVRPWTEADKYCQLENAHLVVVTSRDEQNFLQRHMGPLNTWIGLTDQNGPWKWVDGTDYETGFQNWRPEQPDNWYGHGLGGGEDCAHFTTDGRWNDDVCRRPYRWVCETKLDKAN
Test: flow cytometry on cells

B1: asialofetuin (ligand)
chain: IPLDPVAGYKEPACDDPDTEQAALAAVDYINKHLPRGYKHTLNQIDSVKVWPRRPTGEVYDIEIDTLETTCHVLDPTPLANCSVRQQTQHAVEGDCDIHVLKQDGQFSVLFTKCDSSPDSAEDVRKLCPDCPLLAPLNDSRVVHAVEVALATFNAESNGSYLQLVEISRAQFVPLPVSVSVEFAVAATDCIAKEVVDPTKCNLLAEKQYGFCKGSVIQKALGGEDVRVTCTLFQTQPVIPQPQPDGAEAEAPSAVPDAAGPTPSAAGPPVASVVVGPSVVAVPLPLHRAHYDLRHTFSGVASVESSSGEAFHVGKTPIVGQPSIPGGPVRLCPGRIRYFKI
modifications: biotinylated (site not stated); desialylated with neuraminidase
- EC50: 53 nM

Source: publication PMC11275528 (mAbs, 2024)
